Assay results from US20170088605A1 (Novartis, published 2017).
Read-outs that look alike come from different tables or passages of the source.

T1: BKV serotype I infectious virus (VP1) (BK virus serotype I, UniProt P03088 1-362)
T1 sequence (looked up): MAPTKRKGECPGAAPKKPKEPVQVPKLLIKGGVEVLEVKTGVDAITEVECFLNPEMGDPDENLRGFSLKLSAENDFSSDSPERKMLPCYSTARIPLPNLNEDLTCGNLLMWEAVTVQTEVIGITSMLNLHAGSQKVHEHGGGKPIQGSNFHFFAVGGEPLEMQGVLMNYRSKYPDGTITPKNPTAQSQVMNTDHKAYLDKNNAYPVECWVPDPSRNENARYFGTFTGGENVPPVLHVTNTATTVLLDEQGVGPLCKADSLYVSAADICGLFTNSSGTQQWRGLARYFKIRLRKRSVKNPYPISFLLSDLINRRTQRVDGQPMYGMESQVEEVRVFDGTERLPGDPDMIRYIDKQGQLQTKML


Experiments:
[1] = molecular target: T1, BKV serotype I infectious virus (VP1); assay: cell-based or functional assay
[2] = molecular target: T2, BKV serotype II chimeric infectious virus (VP1 of isolate SB) (BK virus serotype II); assay: cell-based or functional assay
[3] = molecular target: T3, BKV serotype IV chimeric infectious virus (VP1 of strain ITA-4) (BK virus serotype IV); assay: cell-based or functional assay
[4] = molecular target: T4, BKV serotype III chimeric infectious virus (VP1 of isolate AS) (BK virus serotype III); assay: cell-based or functional assay
[5] = molecular target: T1, BKV serotype I infectious virus (VP1); assay: cell-based or functional assay; remark: listed apart in the source
[6] = molecular target: T5, JCV infectious virus, isolates Mad-1 and Mad-4 (VP1) (JC virus); assay: cell-based or functional assay
[7] = molecular target: T1, BKV serotype I infectious virus (VP1); assay: cell-based or functional assay; remark: listed apart in the source
[8] = molecular target: T2, BKV serotype II chimeric infectious …; assay: cell-based or functional assay; remark: listed apart in the source
[9] = molecular target: T3, BKV serotype IV chimeric infectious …; assay: cell-based or functional assay; remark: listed apart in the source
[10] = molecular target: T4, BKV serotype III chimeric infectious …; assay: cell-based or functional assay; remark: listed apart in the source
[11] = molecular target: T6, JCV VLP (consensus) (JC virus, UniProt P03089 1-354); assay: ELISA on plates coated with JCV VLPs, OD 450 nm
T6 construct: also called JCV VLPs; JC virus VLPs

[12] = molecular target: T6, JCV VLP (consensus); assay: ELISA on coated JCV VLPs
[13] = molecular target: T5, JCV infectious virus, isolates Mad-1 …; assay: cell-based or functional assay; remark: listed apart in the source

Binder | neutralization EC50 [5] [µg/mL] | neutralization EC90 [5] [µg/mL] | neutralization EC50 [6] [µg/mL] | neutralization EC90 [6] [µg/mL] | neutralization EC50 [7] [µg/mL] | neutralization EC90 [7] [µg/mL] | neutralization EC50 [8] [µg/mL] | neutralization EC90 [8] [µg/mL] | neutralization EC50 [9] [µg/mL] | neutralization EC90 [9] [µg/mL] | neutralization EC50 [10] [µg/mL] | neutralization EC90 [10] [µg/mL] | also measured
EBB-C1975-A3 (antibody, V domains shown) VH: EVQLVETGGGLVQPGGSLRLSCAASGFTVRRNYMSWVRQAPGKGLEWVSGIYSGGSTYYADSVKGRFTISRDYSKNTLSLQMNTLRVEDTAVYFCAREDEFWSGYSAGVDWGQGTLVTVSS VL: not shown | – | – | – | – | – | – | – | – | – | – | – | – | neutralization EC50 [1]: 0.045 µg/mL; neutralization EC90 [1]: 4.84 µg/mL; neutralization EC50 [2]: 0.12 µg/mL; neutralization EC90 [2]: 25.2 µg/mL; neutralization EC50 [3]: 0.13 µg/mL; neutralization EC90 [3]: 8.18 µg/mL; neutralization EC50 [4]: > 100 µg/mL; neutralization EC90 [4]: > 100 µg/mL
EBB-C1975-E7 (antibody, human IgG1, kappa, V domains shown) VH: EVQLLESGGGLVRPGGSLRVSCAASGFTVSRNYMSWVRQAPGKGLEWVSGIYGGGRTYYAESVKGRFTISRDYSKNTLFLQMNTLRVEDTALYFCAREDEFWSGYSAGVDWGQGTLVTVSS VL: DIQVTQSPSSLSASVGDRVTITCRASQSISSYLNWYQQEPGKAPKLLIYAASTLQTGVPSRFSGSGSGTDFTLTISSLQPEDFATYYCQQSYNTPRTFGQGTKVEIKR | – | – | – | – | – | – | – | – | – | – | – | – | neutralization EC50 [1]: 0.01 µg/mL; neutralization EC90 [1]: 2.62 µg/mL; neutralization EC50 [2]: 0.33 µg/mL; neutralization EC90 [2]: 9.61 µg/mL; neutralization EC50 [3]: 0.35 µg/mL; neutralization EC90 [3]: 8.61 µg/mL; neutralization EC50 [4]: > 100 µg/mL; neutralization EC90 [4]: > 100 µg/mL
2075-16-1 (antibody, V domains shown) VH: QVQLQQPGSELVRPGASVKLSCKASGYTFTNYWMHWVKQGHGQGLEWIGNIYPGSGNTNYGENFKSKGTLTVDTSSSTAYMHLSRLTSEDSAVYYCSRSAIYYGYDGHYFAMDYWGQGTSVTVSS VL: DIQMTQSPSSLSASLGGKVTITCKASQDIRKYIAWYQHKPGKGPRLLINYTSTLQSGIPSRFRGSGSGRDYSFSISNLEPEDIATYYCLQYDNILFTFGTGTKLEIK | 0.065 | 1.25 | – | – | – | – | – | – | – | – | – | – | –
2081-25-6 (antibody, V domains shown) VH: QVQLQQSGAELVRPGSSVKISCKASGYAFSRYWMNWVKQRPGQGLEWIGQIYPGDGDTKYNGKFKDTATLTADKSSSTAYLQLSSLTSEDSAVYFCAKYGNYGMDYWGQGTSVTVSS VL: DAVMTQTPLSLPVSLGDQASISCRSSQSLEYGNGNTYLNWYLQKPGQSPQLLIYRVSNRFSGVLDRFSGSGSGTDFTLKISRVEAEDLGVYFCLQFTHVPYTFGGGTKLEIK | 0.213 | 0.723 | – | – | – | – | – | – | – | – | – | – | –
2081-38-5 (antibody, V domains shown) VH: QVQLQQSGPELVKPGASVKISCKASGYTFSSSWINWVKQRPGQGLEWIGRIYPGDGDTNYNGKFKGKATLTADKSSSTVDMHLSSLTYVDSAVYFCAIHSSGFPHWGQGTLVTVSA VL: DIQMTQTTSSLSASLGGRVTISCRTSQDISDYLNWYQQKPDGAVKLLIYYTSRLHSGVPSRFSGSGSGTDYSLTISNLEQEDIATYFCQQTNTLPFTFGGGTKLEIK | 0.053 | 1.8 | – | – | – | – | – | – | – | – | – | – | –
2075-456-4 (antibody, V domains shown) VH: QVHLQQSGPELVKPGASVTISCKTSGYSFSSCWMNWVKQRPGQGLEWIGRIYPGDGDTKYTEKFKDKATLTADKSSSTAYMQLSSLTSVDSALYFCAISGSGLPYWGQGTLVTVSE VL: DIQMTQTTSSLSASLGDRVTISCRASQDIHNYLNWYQQKPDGTIKLLIYSTSRLHSGVPSRFSGSGSGTHYSLTINNLEQEDIATYFCQQTHTLPLTFGAGTKLELK | 0.092 | 0.503 | – | – | – | – | – | – | – | – | – | – | –
2081-66-5 (antibody, V domains shown) VH: QVQLQQSGPELVKPGASVRISCKVSGFTFSNSWMNWVKQRPGQGLEWIGRIYPGDGDTQYNEKFKGKATLTADTSSNTAYIQLNSLTSVDSAVFFCARSRSGLDYWGQGTTLTVSS VL: DIQMTQSTSSLSASLGDRVTISCRASQDIYNYLNWFQQKPDGTVKPLIYSTSRLHSGVSSRFSGSGSGTDYSLTISNLEREDIATYFCHQSHTVPFTFGSGTKLEIK | 0.041 | 0.601 | – | – | – | – | – | – | – | – | – | – | –
EBB-C1975-B5 (antibody, human IgG1, kappa, V domains shown) VH: QVQLVQSGPGLVKPSETLSLTCTVSGGSTSAYYWTWIRQPPGKGLEWIGYISHSGSTNYNPSLKSRVTISADTSKNQLSLKVNSVTAADTAVYYCARLGDTASLSRFYYYIDVWGKGTTVTVSS VL: EIVMTQSPDTLSLSPGERATLSCRASQSVSSNYLAWYQQKPGEAPRLLIYGASSRATGIPDRFSGSGSGTDFTLTISRLEPEDFAVYYCQQYGSSPPYTFGQGTRLEIKR | – | – | – | – | – | – | – | – | – | – | – | – | neutralization EC50 [1]: 0.033 µg/mL; neutralization EC90 [1]: 5.53 µg/mL; neutralization EC50 [2]: 0.42 µg/mL; neutralization EC90 [2]: 24.2 µg/mL; neutralization EC50 [3]: 0.15 µg/mL; neutralization EC90 [3]: 7.83 µg/mL; neutralization EC50 [4]: 0.76 µg/mL; neutralization EC90 [4]: > 100 µg/mL
NEG447 (antibody, human IgG1, lambda, V domains shown) VH: QVQLQESGPGLVKPSETLSLTCTVSGGSISRDYWSWVRQPPGAGLEWIGNIYYSGSTNYNPSLKSRVTISVATNKKQFSLKLTSVTAADTAVYYCARVPGCSSTSCIDGWFDPWGQGILVTVSS VL: QSVLTQPPSLSAAPGQKVTISCSGSSSNIGNTYVSWYQQLPGTAPKLLIYDNNKRPSGIPDRFSGSKSGTSATLGITGLQTGDEAVYYCGTWDSSLSAWVFGGGTRLTVLG | – | – | > 100 | > 100 | 0.004 | 0.27 | 0.024 | 6.72 | 0.012 | 0.34 | > 100 | > 100 | –
P165E2 (antibody, human IgG1, lambda, V domains shown) VH: QVQLQESGPGLVKPSETLSLTCTVSGGSISRDYWTWVRQPPGEGLEWIGNIYYSGSTNYNPSLKSRVTISVAASKKQFSLKLTSVTAADTAVYYCARVPGCSSTSCIDGWFDPWGQGILVTVSS VL: QSVLTQPPSLSAAPGQRVTISCSGSSSNIGNTYVSWYQQLPGTAPKLLIYDNNKRPSGIPGRFSGSKSGTSATLGITGLQTGDEAAYYCGTWDSSLSAWVFGGGTRLTVLG | – | – | > 100 | > 100 | 0.009 | 0.37 | 0.081 | 7.98 | 0.012 | 0.46 | > 100 | > 100 | –
P7G11A (antibody, human IgG1, lambda, V domains shown) VH: QVQLQESGPGLVKPSQTLSLTCTVSGGSISSGGYSWSWIRQPPGKGLEYIGYIYYRGTTYYNPSLKSRVTISVDTSNNQISLKLSSVTAADTAVYYCARALTHLVGVGWFDPWGQGTMVTVSS VL: QSVLTQPPSVSAAPGQKVTISCSGGSSNLGSNYVSWYQQLPGTAPKLLIYDNNKRPSGIPDRFSGSKSGTSATLGITGLQTGDEADYYCGTWDGSLSAWVFGGGTKVTVLG | – | – | > 100 | > 100 | 0.0008 | 0.34 | 0.074 | 2.89 | 0.015 | 0.53 | > 100 | > 100 | –
P7G11 (antibody, human IgG1, lambda, V domains shown) VH: QVQLQESGPGLAKPSQTLSLTCSVSGGSISSGGYSWSWIRQPPGKGLEYIGYIYYRGTTYYNPSLKSRITMSVDTSNNQISLKLTSVTAADTAVYYCARALTHLVGVGWFDPWGQGTMVTVSS VL: QSVLTQPPSVSAAPGQKVTISCSGGSSNLGSNYVSWYQQLPGTAPKLLIYDNNKRPSGIPDRFSGSKSGTSATLGITGLQTGDEADYYCGTWDGSLSAWVFGGGTKVTVLG | – | – | > 100 | > 100 | 0.007 | 0.37 | 0.187 | 1.79 | 0.011 | 0.48 | > 100 | > 100 | –
2077-4-1 (antibody, V domains shown) VH: EVQLQQSGPELVKPGASMKISCKASGYSFTGYTMNWVKQSHGENLEWIGLFNPYNGGTRYNQKFKGKATLTVDKSSSTAYMELLSLTSEDSAVYYCARLRNYGIGDDFFDYWGQGTTLTVSS VL: DIVMTQSHKFMSTSVGDRVSITCKASQDVGTAVAWYQQKPGQSPKLLIYWASTRHTGVPDRFTGSGSGTDFTLTISNVQSEDLTDYFCQQYSNYPYTFGGGTKLEIK | – | – | – | – | – | – | – | – | – | – | – | – | EC50 (read off the curve) [11]: ~0.03 nM; IC50 [12]: 0.034 nM; neutralization EC50 [13]: 0.138 µg/mL; neutralization EC90 [13]: 3.06 µg/mL
